Where two headings read alike, the source gives them in different places. Starred links: 1 amine or outer side, 2 acyl side, 3 side chain; linkers in the order of their positions; H or OH if unused. Positions of bridges follow the written chain, without caps; N, C: chain ends. No end group written: not given here. *: point of attachment. mClBz = N-terminal group cyclised as a benzyl thioether to a Cys, O=C(c1cccc(C[*:3])c1)[*:2]; C6F5 = pentafluorophenyl group on the Cys sulfur, Fc1c(F)c(F)c(*)c(F)c1F
Experiments:
[1] = biological target: Lys63-linked Ub chains (on proteins in cells and in U2OS lysate); test: cell-based or functional assay
[2] = biological target: Lys63-linked Ub chains (on proteins in cells and in U2OS lysate); test: cell-based or functional assay; remark: listed apart in the source

increase in the population of HeLa cells at G2/M phase, flow cytometry, 72 h [1] [%]	increase in the population of HeLa cells at G2/M phase, flow cytometry, 96 h [1] [%]	increase of overall Annexin V positive HeLa cells, 96 h [1] [%]	relative tail moment, comet assay, U2OS cells [1] [fold]	γ-H2AX level, western blot, HeLa cells [1] [fold]	γ-H2AX level, western blot, U2OS cells [1] [fold]	γ-H2AX level, western blot, HeLa cells [2] [fold]	γ-H2AX level, western blot, U2OS cells [2] [fold]	Binder
5.2	13	14.5	8	3.5	3	–	–	mClBz-CLIWIGSSKNPYILCG (bridge N-15; not fully specified (C-terminus, bridges)) [cyclic peptide 2 (CP1-L1C)]
–	–	–	–	–	–	2.4	1.8	mClBz-C(C6F5)LIWIGSSKNPYILCG (thioether N-15) [cyclic peptide 20, CP1-L1C-C6F5]

— patent US20250099534A1, “UBIQUITIN HIGH AFFINITY CYCLIC PEPTIDES AND METHODS OF USE THEREOF” (TECHNION RESEARCH & DEVELOPMENT FOUNDATION LIMITED, priority 2022, published 2025)
